Four molecules from paper PMC11441495 (Proceedings of the National Academy of Sciences of the …, 2024) can be followed below.

First the molecules themselves.
B1: full-length human αE-catenin (natural protein, UniProt P35221 1-906, looked up)
chain: MTAVHAGNINFKWDPKSLEIRTLAVERLLEPLVTQVTTLVNTNSKGPSNKKRGRSKKAHVLAASVEQATENFLEKGDKIAKESQFLKEELVAAVEDVRKQGDLMKAAAGEFADDPCSSVKRGNMVRAARALLSAVTRLLILADMADVYKLLVQLKVVEDGILKLRNAGNEQDLGIQYKALKPEVDKLNIMAAKRQQELKDVGHRDQMAAARGILQKNVPILYTASQACLQHPDVAAYKANRDLIYKQLQQAVTGISNAAQATASDDASQHQGGGGGELAYALNNFDKQIIVDPLSFSEERFRPSLEERLESIISGAALMADSSCTRDDRRERIVAECNAVRQALQDLLSEYMGNAGRKERSDALNSAIDKMTKKTRDLRRQLRKAVMDHVSDSFLETNVPLLVLIEAAKNGNEKEVKEYAQVFREHANKLIEVANLACSISNNEEGVKLVRMSASQLEALCPQVINAALALAAKPQSKLAQENMDLFKEQWEKQVRVLTDAVDDITSIDDFLAVSENHILEDVNKCVIALQEKDVDGLDRTAGAIRGRAARVIHVVTSEMDNYEPGVYTEKVLEATKLLSNTVMPRFTEQVEAAVEALSSDPAQPMDENEFIDASRLVYDGIRDIRKAVLMIRTPEELDDSDFETEDFDVRSRTSVQTEDDQLIAGQSARAIMAQLPQEQKAKIAEQVASFQEEKSKLDAEVSKWDDSGNDIIVLAKQMCMIMMEMTDFTRGKGPLKNTSDVISAAKKIAEAGSRMDKLGRTIADHCPDSACKQDLLAYLQRIALYCHQLNICSKVKAEVQNLGGELVVSGVDSAMSLIQAAKNLMNAVVQTVKASYVASTKYQKSQGMASLNLPAVSWKMKAPEKKPLVKREKQDETQTKIKRASQKKHVNPVQALSEFKAMDSI
B3: human β-catenin (natural protein, UniProt P35222 1-781, looked up)
chain: MATQADLMELDMAMEPDRKAAVSHWQQQSYLDSGIHSGATTTAPSLSGKGNPEEEDVDTSQVLYEWEQGFSQSFTQEQVADIDGQYAMTRAQRVRAAMFPETLDEGMQIPSTQFDAAHPTNVQRLAEPSQMLKHAVVNLINYQDDAELATRAIPELTKLLNDEDQVVVNKAAVMVHQLSKKEASRHAIMRSPQMVSAIVRTMQNTNDVETARCTAGTLHNLSHHREGLLAIFKSGGIPALVKMLGSPVDSVLFYAITTLHNLLLHQEGAKMAVRLAGGLQKMVALLNKTNVKFLAITTDCLQILAYGNQESKLIILASGGPQALVNIMRTYTYEKLLWTTSRVLKVLSVCSSNKPAIVEAGGMQALGLHLTDPSQRLVQNCLWTLRNLSDAATKQEGMEGLLGTLVQLLGSDDINVVTCAAGILSNLTCNNYKNKMMVCQVGGIEALVRTVLRAGDREDITEPAICALRHLTSRHQEAEMAQNAVRLHYGLPVVVKLLHPPSHWPLIKATVGLIRNLALCPANHAPLREQGAIPRLVQLLVRAHQDTQRRTSMGGTQQQFVEGVRMEEIVEGCTGALHILARDVHNRIVIRGLNTIPLFVQLLYSPIENIQRVAAGVLCELAQDKEAAEAIEAEGATAPLTELLHSRNEGVATYAAAVLFRMSEDKPQDYKKRLSVELTSSLFRTEPMAWNETADLGLDIGAQGEPLGYRQDDPSYRSFHSGGYGQDALGMDPMMEHEMGGHHPGADYPVDGLPDLGHAQDLMDGLPPGDSNQLAWFDTDL
B4: full-length human vinculin autoinhibition-disruption mutant VK3E (natural protein, UniProt P18206-2 1-1066, looked up)
chain: MPVFHTRTIESILEPVAQQISHLVIMHEEGEVDGKAIPDLTAPVAAVQAAVSNLVRVGKETVQTTEDQILKRDMPPAFIKVENACTKLVQAAQMLQSDPYSVPARDYLIDGSRGILSGTSDLLLTFDEAEVRKIIRVCKGILEYLTVAEVVETMEDLVTYTKNLGPGMTKMAKMIDERQQELTHQEHRVMLVNSMNTVKELLPVLISAMKIFVTTKNSKNQGIEEALKNRNFTVEKMSAEINEIIRVLQLTSWDEDAWASKDTEAMKRALASIDSKLNQAKGWLRDPSASPGDAGEQAIRQILDEAGKVGELCAGKERREILGTCKMLGQMTDQVADLRARGQGSSPVAMQKAQQVSQGLDVLTAKVENAARKLEAMTNSKQSIAKKIDAAQNWLADPNGGPEGEEQIRGALAEARKIAELCDDPKERDDILRSLGEISALTSKLADLRRQGKGDSPEARALAKQVATALQNLQTKTNRAVANSRPAKAAVHLEGKIEQAQRWIDNPTVDDRGVGQAAIRGLVAEGHRLANVMMGPYRQDLLAKCDRVDQLTAQLADLAARGEGESPQARALASQLQDSLKDLKARMQEAMTQEVSDVFSDTTTPIKLLAVAATAPPDAPNREEVFDERAANFENHSGKLGATAEKAAAVGTANKSTVEGIQASVKTARELTPQVVSAARILLRNPGNQAAYEHFETMKNQWIDNVEKMTGLVDEAIDTKSLLDASEEAIKKDLDKCKVAMANIQPQMLVAGATSIARRANRILLVAKREVENSEDPKFREAVKAASDELSKTISPMVMDAKAVAGNISDPGLQKSFLDSGYRILGAVAKVREAFQPQEPDFPPPPPDLEQLRLTDELAPPKPPLPEGEVPPPRPPPPEEKDEEFPEQKAGEVINQPMMMAARQLHDEARKWSSKGNDIIAAAKRMALLMAEMSRLVRGGSGTEEALIQCAKDIAKASDEVTRLAKEVAKQCTDKRIRTNLLQVCERIPTISTQLEILSTVKATMLGRTNISDEESEQATEMLVHNAQNLMQSVKETVREAEAASIKIRTDAGFTLRWVRKTPWYQ

Holding throughout (test): reconstitution of the complex from purified proteins
In experiment [1] the target is B4.
The experiment “human β-catenin” deals with B3.
For experiment [2], the target named is B1.
In experiment [3] the target is α-catenin–β-catenin–E-cadherin cytoplasmic tail complex (ABE complex) (human, UniProt P35221 1-906; P35222 1-781; P12830 731-882).
α-catenin–β-catenin–E-cadherin cytoplasmic tail complex (ABE complex), sequence (P12830 731-882, one chain of several): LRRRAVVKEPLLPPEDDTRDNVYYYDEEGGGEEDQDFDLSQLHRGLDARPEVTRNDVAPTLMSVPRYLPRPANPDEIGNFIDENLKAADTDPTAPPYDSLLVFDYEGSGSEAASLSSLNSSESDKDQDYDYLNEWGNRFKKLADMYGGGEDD

In the case of B1, in experiment [1], the binding result was “binds”.

B2: cytoplasmic domain of human E-cadherin (EcadCT, residues 731 to 882) (domain or fragment)
chain: not shown
As to B2, in the experiment with human β-catenin, the binding result is “binds”.

As to B3, in experiment [2], the binding result is on record as “binds”.

B4: the binding result in experiment [3] was “binds”.
